Measured values from the supplement of paper PMC9732359.
± gives the uncertainty stated by the source.

Test: protein stability index of a GFP-peptide fusion (yeast GPS) (PSI 1-4); higher = more stable; sorted into four equal gates, so the index is relative within each strain
Method in brief: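 Tiled yeast protein peptides of 17 residues were each joined downstream of GFP, on plasmids that also express Cherry. The pooled library was maintained in yeast, and mid-log cultures in leucine-free medium were sorted into four equal gates on the GFP/Cherry ratio. Plasmids from every gate were amplified by PCR and sequenced on Illumina, with barcodes linking reads to strains. The protein stability index of a peptide is its gate-number-weighted read frequency summed over the gates.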

| Sequence | protein stability index (doa10∆) | protein stability index (pdr5∆) | protein stability index (san1∆) | protein stability index (ubr1∆) |
| --- | --- | --- | --- | --- |
| NAEKYFNNGDDDDYGDE [RPC31] | 3.18 ± 0.099 | 2.67 ± 0.13 | 3.07 ± 0.066 | 3.16 ± 0.073 |
| NAQLSCITKQDGFKIYD [PUP2] | 3.04 ± 0.16 | 3.17 ± 0.12 | 3.12 ± 0.098 | 3.07 ± 0.1 |
| NATLTPNDSNDEKVTIL [SWI1] | 3.02 ± 0.059 | 3.22 ± 0.061 | 3.1 ± 0.066 | 3.11 ± 0.04 |
| NDFFIIYYTPAFFHLFA [YJL039C/NUP192] | 1.41 ± 0.058 | 1.57 ± 0.043 | 1.62 ± 0.073 | 1.58 ± 0.042 |
| NDILVLMESEREARRLR [RPS28A] | 1.56 ± 0.12 | 2.94 ± 0.079 | 2.08 ± 0.16 | 2.7 ± 0.097 |
| NDIPLGSGQPDNDTVVT [SRB8] | 3.3 ± 0.12 | 3.18 ± 0.16 | 2.51 ± 0.14 | 3.12 ± 0.28 |
| NDKQGFPMKQGVLLPTR [RPS6A] | 2.75 ± 0.098 | 3.06 ± 0.14 | 2.79 ± 0.075 | 2.57 ± 0.12 |
| NDLDEDDIYDISLLKNR [RPN4] | 2.87 ± 0.12 | 3.2 ± 0.11 | 3.23 ± 0.14 | 3.22 ± 0.2 |
| NDNDITVKENESDSKLQ [UBP6] | 3.48 ± 0.12 | 3.24 ± 0.096 | 3.15 ± 0.071 | 3.35 ± 0.081 |
| NDNENIVNNDLPTTVVS [MED2] | 2.55 ± 0.053 | 2.8 ± 0.05 | 2.63 ± 0.042 | 2.89 ± 0.039 |
| NDSENNSSEEDKKKGQN [ITC1] | 2.24 ± 0.073 | 2.53 ± 0.11 | 2.68 ± 0.12 | 2.86 ± 0.1 |
| NDVQGIDDVQTIKVVKR [RPP1] | 3.08 ± 0.064 | 2.62 ± 0.066 | 2.69 ± 0.053 | 2.81 ± 0.056 |
| NDWKLETERLISQSQLG [SIN4] | 3.42 ± 0.096 | 3.11 ± 0.14 | 3.3 ± 0.068 | 3.53 ± 0.19 |
| NECIEERVPKTQLDKLR [SMB1] | 3.1 ± 0.051 | 3.07 ± 0.062 | 3.136 ± 0.03 | 3.24 ± 0.046 |
| NECVCTPYNADFDGDEM [RPO31] | 3.06 ± 0.069 | 3.18 ± 0.069 | 3.06 ± 0.049 | 3.11 ± 0.09 |
| NEGAASSNPQSAYVKAF [SMC1] | 2.62 ± 0.051 | 2.6 ± 0.053 | 2.5 ± 0.032 | 2.69 ± 0.027 |
| NEIESRQLTSLGSKKEL [SNU114] | 3.17 ± 0.075 | 3.28 ± 0.078 | 3.31 ± 0.092 | 3.37 ± 0.058 |
| NELLDLTESQTETYISD [RPN5] | 3.17 ± 0.073 | 3.35 ± 0.069 | 3.12 ± 0.046 | 3.21 ± 0.069 |
| NEVSLAIKKSSMKMELL [SMC2] | 2.69 ± 0.071 | 2.49 ± 0.082 | 3.34 ± 0.12 | 2.21 ± 0.075 |
| NEYVIKTPVFTTGGDYI [YMR129W/POM152] | 1.88 ± 0.062 | 2.07 ± 0.053 | 1.91 ± 0.075 | 1.99 ± 0.053 |
| NEYYPMCEQALSALFTI [YCS4] | 2.2 ± 0.062 | 2.65 ± 0.088 | 2.47 ± 0.077 | 2.39 ± 0.045 |
| NFADKYDEVKKHWGGGI [RPL8A] | 2.66 ± 0.21 | 3.2 ± 0.12 | 2.97 ± 0.099 | 3.05 ± 0.14 |
| NFEAALFAKSSSKKEYM [GAL11] | 1.99 ± 0.085 | 2.52 ± 0.084 | 2.17 ± 0.1 | 2.67 ± 0.058 |
| NFENDNENNSNGGEDTS [REC8] | 2.93 ± 0.2 | 2.64 ± 0.27 | 2.65 ± 0.16 | 2.81 ± 0.16 |
| NFFQAPQDYVLERVKRI [YML031W/NDC1] | 2.81 ± 0.064 | 2.62 ± 0.045 | 2.9 ± 0.068 | 2.77 ± 0.036 |
